Test results reported in EP1142907A1.

Target: GAL4-CREBΔLZ fusion protein
Assay: cell-based or functional assay

transcriptional coactivator CBP (CREB-binding protein)
transactivation of the pG5CAT reporter after caffeine in HEK293 cells: < 45 fold
